# Laboratory results: article PMC11574045, “A cofactor-induced repressive type of transcription factor condensation can be induced by synthetic peptides to suppress tumorigenesis” (The EMBO Journal, 2024)
# B1: ESRRA (protein, UniProt P11474 1-423, looked up)
# Steroid hormone receptor ERR1: MSSQVVGIEPLYIKAEPASPDSPKGSSETETEPPVALAPGPAPTRCLPGHKEEEDGEGAGPGEQGGGKLVLSSLPKRLCLVCGDVASGYHYGVASCEACKAFFKRTIQGSIEYSCPASNECEITKRRRKACQACRFTKCLRVGMLKEGVRLDRVRGGRQKYKRRPEVDPLPFPGPFPAGPLAVAGGPRKTAAPVNALVSHLLVVEPEKLYAMPDPAGPDGHLPAVATLCDLFDREIVVTISWAKSIPGFSSLSLSDQMSVLQSVWMEVLVLGVAQRSLPLQDELAFAEDLVLDEEGARAAGLGELGAALLQLVRRLQALRLEREEYVLLKALALANSDSVHIEDAEAVEQLREALHEALLEYEAGRAGPGGGAERRRAGRLLLTLPLLRQTAGKVLAHFYGVKLEGKVPMHKLFLEMLEAMMD
# B2: EN2 (protein, UniProt P19622 1-333, looked up)
# Homeobox protein engrailed-2: MEENDPKPGEAAAAVEGQRQPESSPGGGSGGGGGSSPGEADTGRRRALMLPAVLQAPGNHQHPHRITNFFIDNILRPEFGRRKDAGTCCAGAGGGRGGGAGGEGGASGAEGGGGAGGSEQLLGSGSREPRQNPPCAPGAGGPLPAAGSDSPGDGEGGSKTLSLHGGAKKGGDPGGPLDGSLKARGLGGGDLSVSSDSDSSQAGANLGAQPMLWPAWVYCTRYSDRPSSGPRSRKPKKKNPNKEDKRPRTAFTAEQLQRLKAEFQTNRYLTEQRRQSLAQELSLNESQIKIWFQNKRAKIKKATGNKNTLAVHLMAQGLYNHSTTAKEGKSDSE
# B3: ERCC3 (protein, UniProt P19447 1-782, looked up)
# General transcription and DNA …: MGKRDRADRDKKKSRKRHYEDEEDDEEDAPGNDPQEAVPSAAGKQVDESGTKVDEYGAKDYRLQMPLKDDHTSRPLWVAPDGHIFLEAFSPVYKYAQDFLVAIAEPVCRPTHVHEYKLTAYSLYAAVSVGLQTSDITEYLRKLSKTGVPDGIMQFIKLCTVSYGKVKLVLKHNRYFVESCHPDVIQHLLQDPVIRECRLRNSEGEATELITETFTSKSAISKTAESSGGPSTSRVTDPQGKSDIPMDLFDFYEQMDKDEEEEEETQTVSFEVKQEMIEELQKRCIHLEYPLLAEYDFRNDSVNPDINIDLKPTAVLRPYQEKSLRKMFGNGRARSGVIVLPCGAGKSLVGVTAACTVRKRCLVLGNSAVSVEQWKAQFKMWSTIDDSQICRFTSDAKDKPIGCSVAISTYSMLGHTTKRSWEAERVMEWLKTQEWGLMILDEVHTIPAKMFRRVLTIVQAHCKLGLTATLVREDDKIVDLNFLIGPKLYEANWMELQNNGYIAKVQCAEVWCPMSPEFYREYVAIKTKKRILLYTMNPNKFRACQFLIKFHERRNDKIIVFADNVFALKEYAIRLNKPYIYGPTSQGERMQILQNFKHNPKINTIFISKVGDTSFDLPEANVLIQISSHGGSRRQEAQRLGRVLRAKKGMVAEEYNAFFYSLVSQDTQEMAYSTKRQRFLVDQGYSFKVITKLAGMEEEDLAFSTKEEQQQLLQKVLAATDLDAEEEVVAGEFGSRSSQASRRFGTMSSMSGADDTVYMEYHSSRSKAPSKHVHPLFKRFRK
# B4: ERF (protein, UniProt P50548 1-548, looked up)
# ETS domain-containing …: MKTPADTGFAFPDWAYKPESSPGSRQIQLWHFILELLRKEEYQGVIAWQGDYGEFVIKDPDEVARLWGVRKCKPQMNYDKLSRALRYYYNKRILHKTKGKRFTYKFNFNKLVLVNYPFIDVGLAGGAVPQSAPPVPSGGSHFRFPPSTPSEVLSPTEDPRSPPACSSSSSSLFSAVVARRLGRGSVSDCSDGTSELEEPLGEDPRARPPGPPDLGAFRGPPLARLPHDPGVFRVYPRPRGGPEPLSPFPVSPLAGPGSLLPPQLSPALPMTPTHLAYTPSPTLSPMYPSGGGGPSGSGGGSHFSFSPEDMKRYLQAHTQSVYNYHLSPRAFLHYPGLVVPQPQRPDKCPLPPMAPETPPVPSSASSSSSSSSSPFKFKLQPPPLGRRQRAAGEKAVAGADKSGGSAGGLAEGAGALAPPPPPPQIKVEPISEGESEEVEVTDISDEDEEDGEVFKTPRAPPAPPKPEPGEAPGASQCMPLKLRFKRRWSEDCRLEGGGGPAGGFEDEGEDKKVRGEGPGEAGGPLTPRRVSSDLQHATAQLSLEHRDS
# B5: EMX1 (protein, UniProt Q04741 1-290, looked up)
# Homeobox protein EMX1: MCLAGCTPRKAAAPGRGALPRARLPRTAPAAATMFQPAAKRGFTIESLVAKDGGTGGGTGGGGAGSHLLAAAASEEPLRPTALNYPHPSAAEAAFVSGFPAAAAAGAGRSLYGGPELVFPEAMNHPALTVHPAHQLGASPLQPPHSFFGAQHRDPLHFYPWVLRNRFFGHRFQASDVPQDGLLLHGPFARKPKRIRTAFSPSQLLRLERAFEKNHYVVGAERKQLAGSLSLSETQVKVWFQNRRTKYKRQKLEEEGPESEQKKKGSHHINRWRIATKQANGEDIDVTSND
# B6: ETV1 (protein, UniProt P50549 1-477, looked up)
# ETS translocation variant 1: MDGFYDQQVPYMVTNSQRGRNCNEKPTNVRKRKFINRDLAHDSEELFQDLSQLQETWLAEAQVPDNDEQFVPDYQAESLAFHGLPLKIKKEPHSPCSEISSACSQEQPFKFSYGEKCLYNVSAYDQKPQVGMRPSNPPTPSSTPVSPLHHASPNSTHTPKPDRAFPAHLPPSQSIPDSSYPMDHRFRRQLSEPCNSFPPLPTMPREGRPMYQRQMSEPNIPFPPQGFKQEYHDPVYEHNTMVGSAASQSFPPPLMIKQEPRDFAYDSEVPSCHSIYMRQEGFLAHPSRTEGCMFEKGPRQFYDDTCVVPEKFDGDIKQEPGMYREGPTYQRRGSLQLWQFLVALLDDPSNSHFIAWTGRGMEFKLIEPEEVARRWGIQKNRPAMNYDKLSRSLRYYYEKGIMQKVAGERYVYKFVCDPEALFSMAFPDNQRPLLKTDMERHINEEDTVPLSHFDESMAYMPEGGCCNPHPYNEGYVY
# B7: ETV7 (protein, UniProt Q9Y603 1-341, looked up)
# Transcription factor ETV7: MQEGELAISPISPVAAMPPLGTHVQARCEAQINLLGEGGICKLPGRLRIQPALWSREDVLHWLRWAEQEYSLPCTAEHGFEMNGRALCILTKDDFRHRAPSSGDVLYELLQYIKTQRRALVCGPFFGGIFRLKTPTQHSPVPPEEVTGPSQMDTRRGHLLQPPDPGLTSNFGHLDDPGLARWTPGKEESLNLCHCAELGCRTQGVCSFPAMPQAPIDGRIADCRLLWDYVYQLLLDTRYEPYIKWEDKDAKIFRVVDPNGLARLWGNHKNRVNMTYEKMSRALRHYYKLNIIKKEPGQKLLFRFLKTPGKMVQDKHSHLEPLESQEQDRIEFKDKRPEISP
# B8: ENY2 (protein, UniProt Q9NPA8 1-101, looked up)
# Transcription and mRNA export …: MVVSKMNKDAQMRAAINQKLIETGERERLKELLRAKLIECGWKDQLKAHCKEVIKEKGLEHVTVDDLVAEITPKGRALVPDSVKKELLQRIRTFLAQHASL
# B9: EZH1 (protein, UniProt Q92800 1-747, looked up)
# Histone-lysine …: MEIPNPPTSKCITYWKRKVKSEYMRLRQLKRLQANMGAKALYVANFAKVQEKTQILNEEWKKLRVQPVQSMKPVSGHPFLKKCTIESIFPGFASQHMLMRSLNTVALVPIMYSWSPLQQNFMVEDETVLCNIPYMGDEVKEEDETFIEELINNYDGKVHGEEEMIPGSVLISDAVFLELVDALNQYSDEEEEGHNDTSDGKQDDSKEDLPVTRKRKRHAIEGNKKSSKKQFPNDMIFSAIASMFPENGVPDDMKERYRELTEMSDPNALPPQCTPNIDGPNAKSVQREQSLHSFHTLFCRRCFKYDCFLHPFHATPNVYKRKNKEIKIEPEPCGTDCFLLLEGAKEYAMLHNPRSKCSGRRRRRHHIVSASCSNASASAVAETKEGDSDRDTGNDWASSSSEANSRCQTPTKQKASPAPPQLCVVEAPSEPVEWTGAEESLFRVFHGTYFNNFCSIARLLGTKTCKQVFQFAVKESLILKLPTDELMNPSQKKKRKHRLWAAHCRKIQLKKDNSSTQVYNYQPCDHPDRPCDSTCPCIMTQNFCEKFCQCNPDCQNRFPGCRCKTQCNTKQCPCYLAVRECDPDLCLTCGASEHWDCKVVSCKNCSIQRGLKKHLLLAPSDVAGWGTFIKESVQKNEFISEYCGELISQDEADRRGKVYDKYMSSFLFNLNNDFVVDATRKGNKIRFANHSVNPNCYAKVVMVNGDHRIGIFAKRAIQAGEELFFDYRYSQADALKYVGIERETDVL
# B10: ETV2 (protein, UniProt P41163 1-335, looked up)
# ETS translocation variant 2: MDLWNWDEASLQEVPPGDKLTGLGAEFGFYFPEVALQEDTPITPMNVEGCWKGFPELDWNPALPHEDVPFQAEPVAHPLPWSRDWTDLGCNTSDPWSCASQTPGPAPPGTSPSPFVGFEGATGQNPATSAGGVPSWSHPPAAWSTTSWDCSVGPSGATYWDNGLGGEAHEDYKMSWGGSAGSDYTTTWNTGLQDCSIPFEGHQSPAFTTPSKSNKQSDRATLTRYSKTNHRGPIQLWQFLLELLHDGARSSCIRWTGNSREFQLCDPKEVARLWGERKRKPGMNYEKLSRGLRYYYRRDIVLKSGGRKYTYRFGGRVPVLAYQDDMGHLPGAEGQ
# B11: ELK1 (protein, UniProt P19419 1-428, looked up)
# ETS domain-containing protein …: MDPSVTLWQFLLQLLREQGNGHIISWTSRDGGEFKLVDAEEVARLWGLRKNKTNMNYDKLSRALRYYYDKNIIRKVSGQKFVYKFVSYPEVAGCSTEDCPPQPEVSVTSTMPNVAPAAIHAAPGDTVSGKPGTPKGAGMAGPGGLARSSRNEYMRSGLYSTFTIQSLQPQPPPHPRPAVVLPSAAPAGAAAPPSGSRSTSPSPLEACLEAEEAGLPLQVILTPPEAPNLKSEELNVEPGLGRALPPEVKVEGPKEELEVAGERGFVPETTKAEPEVPPQEGVPARLPAVVMDTAGQAGGHAASSPEISQPQKGRKPRDLELPLSPSLLGGPGPERTPGSGSGSGLQAPGPALTPSLLPTHTLTPVLLTPSSLPPSIHFWSTLSPIAPRSPAKLSFQFPSSGSAQVHIPSISVDGLSTPVVLSPGPQKP
# B12: AES (protein, UniProt Q08117 1-197, looked up)
# TLE family member 5: MMFPQSRHSGSSHLPQQLKFTTSDSCDRIKDEFQLLQAQYHSLKLECDKLASEKSEMQRHYVMYYEMSYGLNIEMHKQAEIVKRLNGICAQVLPYLSQEHQQQVLGAIERAKQVTAPELNSIIRQQLQAHQLSQLQALALPLTPLPVGLQPPSLPAVSAGTGLLSLSALGSQAHLSKEDKNGHDGDTHQEDDGEKSD
# Test system: HEK293FT cells transfected with TF library
# Assay: Screening of TF condensates based on fluorescent puncta
# Type: cell-based
# Conditions: Figure 1B numerical data; TF library screen, one value per transcriptional factor
# Method: TF plasmids were automatically added to black-walled 384-well plates at 80 ng per well to reach a final concentration of 1.6 μg/ml. Polyethylenimine (PEI, Sigma) was then added to the plasmid-loaded plates at 240 ng per well (4.8 μg/ml). Subsequently, HEK293FT cells were seeded into the plate at 2000 cells per well. After 60 h, cells were cultured in medium with or without glucose for 12 h, and then fixed with 4% paraformaldehyde (PFA) at room temperature for 30 min. After three washes with PBS, fixed cells were permeabilized with 0.05% Triton X-100 for 15 min. Thereafter, cells were blocked with 5% BSA for 1 h, and then incubated overnight with anti-Flag (Sigma F3165, 1:200) and anti-GAL4 (Abbkine ABP57232, 1:200) primary antibodies at 4 °C. The cells were then gently washed with PBS, followed by being incubated with Alexa Fluor Plus 488 goat anti-mouse IgG secondary antibody (Thermo A32723, 1:400) or Alexa Fluor Plus 488 goat anti-rabbit IgG secondary antibody (Thermo A32731, 1:400) for 1 h. The plates were kept at 4 °C in the dark before being analyzed using an Opera System (Perkin Elmer). Fifty random fields per well were scanned and analyzed using the Columbus Plus Image Data Storage and Analysis System (Perkin Elmer).
row,Molecule,Z score of condensed fraction
1,B1,0.7125
2,B2,2.005
3,B3,-0.7686
4,B4,-0.2253
5,B5,-0.9497
6,B6,-0.2404
7,B7,-0.026
8,B8,-0.6608
9,B9,-2.133
10,B10,0.6041
11,B11,-0.5027
12,B12,-0.7544
